# Source: IntAct's records for PubMed 35512704
# B1: Speckle-type POZ protein (Homo sapiens), O43791 (parent)
# chain: MSRVPSPPPPAEMSSGPVAESWCYTQIKVVKFSYMWTINNFSFCREEMGEVIKSSTFSSGANDKLKWCLRVNPKGLDEESKDYLSLYLLLVSCPKSEVRAKFKFSILNAKGEETKAMESQRAYRFVQGKDWGFKKFIRRDFLLDEANGLLPDDKLTLFCEVSVVQDSVNISGQNTMNMVKVPECRLADELGGLWENSRFTDCCLCVAGQEFQAHKAILAARSPVFSAMFEHEMEESKKNRVEINDVEPEVFKEMMCFIYTGKAPNLDKMADDLLAAADKYALERLKVMCEDALCSNLSVENAAEILILADLHSADQLKTQAVDFINYHASDVLETSGWKSMVVSHPHLVAEAYRSLASAQCPFLGPPRKRLKQS
# partner: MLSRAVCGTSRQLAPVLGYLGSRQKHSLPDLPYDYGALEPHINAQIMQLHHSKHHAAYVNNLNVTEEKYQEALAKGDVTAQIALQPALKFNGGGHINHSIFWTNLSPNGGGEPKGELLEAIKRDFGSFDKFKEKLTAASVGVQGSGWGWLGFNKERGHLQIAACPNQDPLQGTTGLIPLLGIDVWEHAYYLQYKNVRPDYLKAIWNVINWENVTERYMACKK
# B2: Speckle-type POZ protein (Homo sapiens), O43791 (parent)
# chain: B1 chain
# partner: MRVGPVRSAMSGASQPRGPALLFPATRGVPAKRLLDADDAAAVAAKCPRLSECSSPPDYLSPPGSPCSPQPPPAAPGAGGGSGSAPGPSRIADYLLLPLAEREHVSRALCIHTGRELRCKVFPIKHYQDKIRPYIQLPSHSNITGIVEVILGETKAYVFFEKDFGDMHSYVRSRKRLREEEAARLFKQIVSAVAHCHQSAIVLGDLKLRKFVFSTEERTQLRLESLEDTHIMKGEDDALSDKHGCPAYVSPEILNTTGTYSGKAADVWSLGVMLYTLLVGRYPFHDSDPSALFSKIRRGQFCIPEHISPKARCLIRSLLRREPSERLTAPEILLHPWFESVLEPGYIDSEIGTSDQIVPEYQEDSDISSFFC
# B3: Speckle-type POZ protein (Homo sapiens), O43791 (parent)
# chain: B1 chain
# partner: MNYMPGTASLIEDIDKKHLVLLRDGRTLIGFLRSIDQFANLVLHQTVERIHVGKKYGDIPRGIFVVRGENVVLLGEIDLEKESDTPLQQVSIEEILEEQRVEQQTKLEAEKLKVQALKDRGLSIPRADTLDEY
# B4: Speckle-type POZ protein (Homo sapiens), O43791 (parent)
# chain: B1 chain
# partner: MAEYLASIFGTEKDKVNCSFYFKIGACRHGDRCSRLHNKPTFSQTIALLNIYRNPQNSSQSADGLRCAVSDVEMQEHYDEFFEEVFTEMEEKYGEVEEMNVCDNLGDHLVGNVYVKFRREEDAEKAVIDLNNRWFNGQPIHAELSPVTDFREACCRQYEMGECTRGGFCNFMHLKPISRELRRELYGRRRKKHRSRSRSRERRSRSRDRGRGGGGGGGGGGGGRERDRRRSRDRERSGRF
# B5: Speckle-type POZ protein (Homo sapiens), O43791 (parent)
# chain: B1 chain
# partner: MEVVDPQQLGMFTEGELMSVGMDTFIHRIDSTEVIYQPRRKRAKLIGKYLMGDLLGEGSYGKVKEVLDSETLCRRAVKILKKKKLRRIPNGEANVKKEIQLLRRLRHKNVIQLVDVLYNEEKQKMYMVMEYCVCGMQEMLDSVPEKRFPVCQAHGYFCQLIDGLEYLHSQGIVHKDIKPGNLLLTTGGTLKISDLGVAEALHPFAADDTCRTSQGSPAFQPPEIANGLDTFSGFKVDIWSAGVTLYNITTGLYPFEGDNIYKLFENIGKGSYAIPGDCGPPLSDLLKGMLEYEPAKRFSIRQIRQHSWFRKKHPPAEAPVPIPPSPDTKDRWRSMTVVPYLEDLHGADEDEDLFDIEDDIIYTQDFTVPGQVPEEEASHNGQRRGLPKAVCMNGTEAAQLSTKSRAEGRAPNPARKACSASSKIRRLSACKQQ
# B6: Speckle-type POZ protein (Homo sapiens), O43791 (parent)
# chain: B1 chain
# partner: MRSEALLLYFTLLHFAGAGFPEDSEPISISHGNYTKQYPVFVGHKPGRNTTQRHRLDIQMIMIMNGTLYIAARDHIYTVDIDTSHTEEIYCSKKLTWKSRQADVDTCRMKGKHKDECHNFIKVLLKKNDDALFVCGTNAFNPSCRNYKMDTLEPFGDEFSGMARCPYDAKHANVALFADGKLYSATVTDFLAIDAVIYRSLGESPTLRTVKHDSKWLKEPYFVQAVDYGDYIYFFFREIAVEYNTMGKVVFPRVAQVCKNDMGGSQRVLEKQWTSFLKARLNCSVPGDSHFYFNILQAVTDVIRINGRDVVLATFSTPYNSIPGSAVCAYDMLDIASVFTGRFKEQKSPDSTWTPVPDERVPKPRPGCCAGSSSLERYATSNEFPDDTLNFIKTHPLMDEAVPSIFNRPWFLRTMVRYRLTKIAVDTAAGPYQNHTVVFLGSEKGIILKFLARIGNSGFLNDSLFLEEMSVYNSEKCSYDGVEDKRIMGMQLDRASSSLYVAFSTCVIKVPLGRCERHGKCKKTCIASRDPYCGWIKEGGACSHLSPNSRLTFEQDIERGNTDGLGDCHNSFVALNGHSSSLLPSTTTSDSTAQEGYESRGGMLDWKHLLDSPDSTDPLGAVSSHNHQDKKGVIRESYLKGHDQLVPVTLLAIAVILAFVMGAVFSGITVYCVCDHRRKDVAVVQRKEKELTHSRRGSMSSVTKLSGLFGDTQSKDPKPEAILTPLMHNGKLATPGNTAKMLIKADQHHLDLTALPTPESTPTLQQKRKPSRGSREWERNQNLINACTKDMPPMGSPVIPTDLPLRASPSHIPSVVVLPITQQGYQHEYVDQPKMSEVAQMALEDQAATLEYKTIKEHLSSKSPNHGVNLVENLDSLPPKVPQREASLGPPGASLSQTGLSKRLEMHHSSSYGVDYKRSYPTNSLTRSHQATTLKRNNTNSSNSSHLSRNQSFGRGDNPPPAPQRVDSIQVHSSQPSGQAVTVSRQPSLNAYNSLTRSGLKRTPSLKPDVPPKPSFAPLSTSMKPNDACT
# B7: Speckle-type POZ protein (Homo sapiens), O43791 (parent)
# chain: B1 chain
# partner: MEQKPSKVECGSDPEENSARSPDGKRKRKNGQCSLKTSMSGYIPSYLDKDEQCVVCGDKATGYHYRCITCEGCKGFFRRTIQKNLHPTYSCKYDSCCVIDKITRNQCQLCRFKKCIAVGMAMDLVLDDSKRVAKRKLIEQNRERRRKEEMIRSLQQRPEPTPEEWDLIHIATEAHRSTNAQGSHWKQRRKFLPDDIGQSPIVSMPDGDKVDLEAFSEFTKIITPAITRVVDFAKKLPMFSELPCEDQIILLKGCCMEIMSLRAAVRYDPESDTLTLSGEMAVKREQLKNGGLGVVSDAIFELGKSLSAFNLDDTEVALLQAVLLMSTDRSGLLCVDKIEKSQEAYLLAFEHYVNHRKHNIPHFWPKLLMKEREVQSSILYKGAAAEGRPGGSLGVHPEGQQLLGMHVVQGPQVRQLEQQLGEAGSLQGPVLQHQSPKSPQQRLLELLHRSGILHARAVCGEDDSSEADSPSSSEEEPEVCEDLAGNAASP
# Variants of: B1
# Settings: with sodm_human SOD2, P04179
row,Variant,effect of a mutation on the interaction
1,F133L,with no effect

# Variants of: B2
# Settings: with trib1_human TRIB1, Q96RU8
row,Variant,effect of a mutation on the interaction
1,F102C,with no effect

# Variants of: B2
# Settings: with trib1_human TRIB1, Q96RU8
# Remark: another data set of the same source
row,Variant,effect of a mutation on the interaction
1,Y87C,with no effect

# Variants of: B2
# Settings: with trib1_human TRIB1, Q96RU8
# Remark: another data set of the same source
row,Variant,effect of a mutation on the interaction
1,F133L,causing an interaction

# Variants of: B2
# Settings: with trib1_human TRIB1, Q96RU8
# Remark: another data set of the same source
row,Variant,effect of a mutation on the interaction
1,F133V,causing an interaction

# Variants of: B3
# Settings: with lsm1_human LSM1, O15116
row,Variant,effect of a mutation on the interaction
1,Y87C,with no effect

# Variants of: B3
# Settings: with lsm1_human LSM1, O15116
# Remark: another data set of the same source
row,Variant,effect of a mutation on the interaction
1,F133L,with no effect

# Variants of: B3
# Settings: with lsm1_human LSM1, O15116
# Remark: another data set of the same source
row,Variant,effect of a mutation on the interaction
1,F133V,with no effect

# Variants of: B4
# Settings: with U2AF1, Q01081
row,Variant,effect of a mutation on the interaction
1,F133V,with no effect

# Variants of: B4
# Settings: with U2AF1, Q01081
# Remark: another data set of the same source
row,Variant,effect of a mutation on the interaction
1,F133L,with no effect

# Variants of: B4
# Settings: with U2AF1, Q01081
# Remark: another data set of the same source
row,Variant,effect of a mutation on the interaction
1,Y87C,with no effect

# Variants of: B4
# Settings: with U2AF1, Q01081
# Remark: another data set of the same source
row,Variant,effect of a mutation on the interaction
1,F102C,with no effect

# Variants of: B5
# Settings: with stk11_human STK11, Q15831
row,Variant,effect of a mutation on the interaction
1,Y87C,with no effect

# Variants of: B5
# Settings: with stk11_human STK11, Q15831
# Remark: another data set of the same source
row,Variant,effect of a mutation on the interaction
1,F102C,with no effect

# Variants of: B5
# Settings: with stk11_human STK11, Q15831
# Remark: another data set of the same source
row,Variant,effect of a mutation on the interaction
1,F133V,with no effect

# Variants of: B5
# Settings: with stk11_human STK11, Q15831
# Remark: another data set of the same source
row,Variant,effect of a mutation on the interaction
1,F133L,with no effect

# Variants of: B6
# Settings: with sem6a_human SEMA6A
row,Variant,effect of a mutation on the interaction
1,F102C,with no effect

# Variants of: B6
# Settings: with sem6a_human SEMA6A
# Remark: another data set of the same source
row,Variant,effect of a mutation on the interaction
1,Y87C,with no effect

# Variants of: B6
# Settings: with sem6a_human SEMA6A
# Remark: another data set of the same source
row,Variant,effect of a mutation on the interaction
1,F133V,with no effect

# Variants of: B6
# Settings: with sem6a_human SEMA6A
# Remark: another data set of the same source
row,Variant,effect of a mutation on the interaction
1,F133L,with no effect

# Variants of: B7
# Settings: with tha_human THRA
row,Variant,effect of a mutation on the interaction
1,F133L,with no effect

# Variants of: B7
# Settings: with tha_human THRA
# Remark: another data set of the same source
row,Variant,effect of a mutation on the interaction
1,F133V,with no effect
